Reference: the DeepSol protein solubility set

Experiment: soluble on expression in E. coli; label from the status in PepcDB or PDB records

Soluble on expression in E. coli, soluble:
MSDYENDDECWNVLEGFRVTLTSVIDPSRITPYLRQCKVLNPDDEEQVLSDPNLVIRKRKVGVLLDILQRTGHKGYVAFLESLELYYPQLYKKVTGKEPARVFSMIIDASGESGLTQLLMTEVMKLQKKVQDLTALLSSKDDFIKELRVKDSLLRKHQERVQRLKEECEAGSRELKRCKEENYDLAMRLAHQSEEKGAALMRNRDLQLEIDQLKHSLMKAEDDCKVERKHTLKLRHAMEQRPSQELLWELQQEKALLQARVQELEASVQEGKLDRSSPYIQVLEEDWRQALRDHQEQANTIFSLRKDLRQGEARRLRCMEEKEMFELQCLALRKDSKMYKDRIEAILLQMEEVAIERDQAIATREELHAQHARGLQEKDALRKQVRELGEKADELQLQVFQCEAQLLAVEGRLRRQQLETLVLSSDLEDGSPRRSQELSLPQDLEDTQLSDKGCLAGGGSPKQPFAALHQEQVLRNPHDAGLSSGEPPEKERRRLKESFENYRRKRALRKMQKGWRQGEEDRENTTGSDNTDTEGS, MNNSEQLIALKESETAFLKYFNKADYELVDFSVVEKLDWKQLNHEDLQQMGERNFWQHEHQIYALRNDFTDQLLRYYSMYPTAATKVAYTGLIIRNNEAAVQVGLENYAPSLANVQQSLKLFIQFIQQQLRDNVHFVVLGHYQLLDALLDKSLQTPDILSMIEERNLSGLVTYLSTEHPIVQILKENTQQQLNVLEHYIPNDHPALVELKIWERWLHTQGYKDIHLDITAQPPRSYYTGLFIQCHFAENESRVLTGGYYKGSIEGFGLGLTL, MSLYKLIALDMDGTLLNDDKIISKRNKEAIKKAKNLGYKVVLSTGRPLKGVERYLKELDLVNDDDYAIAFNGGLVQNTKTGEVLGKELMKFEDLDRLYKLSQKFNVNIHMLSINECITPKKNPYTEVEVNINQIPLIEKNFNELPHDTVIVKIMMIDSKEKLDKVEKLLPKEIYDDYSVARSSDIFLEFSPKGVHKGVGLKILSEHLNLKKEELIAVGDAGNDIAMIEYAGLGVAMGNAFPYVKESADYVTDNNETHGVAKVIEKFMLNEGHHHHHH, MSLSIFSHFQERFEATRQEEYSLQEYLDLCKQDKTAYASAAERLLMAIGEPELLDTSVDSRLSRIFSNKVIRRYPAFADFHGMEECIDQIVAFFRHAAQGLEEKKQILYLLGPVGGGKSSLAEKLKQLMEKVPFYAIKGSPVFESPLGLFNPDEDGAILEEDYGIPRRYLRSIMSPWATKRLNEFGGDISQFRVVKLYPSILNQIAIAKTEPGDENNQDISALVGKVDIRKLEEYPQNDADAYSYSGALCRANQGLMEFVEMFKAPIKVLHPLLTATQEGNYNSTEGLGALPYSGIILAHSNESEWHSFRNNKNNEAFIDRIYIVKVPYCLRVADEIKIYDKLLVNSSLAHAHCAPDTLKMLSQFSVLSRLKEPENSNIYSKMRVYDGENLKDTDPKAKSIQEYRDSAGVDEGMAGLSTRFAFKILSKVFNFDPHEVAANPVHLLYVLEQQIEQEQFQPETRERYLRFIKEYLAPRYVEFIGKEIQTAYLESYSEYGQNIFDRYVLYADFWIQDQEYRDPETGEILNRAALNEELEKIEKPAGISNPKDFRNEIVNFVLRARAGNNGKNPSWLSYEKLRVVIEKKMFSNTEDLLPVISFNAKASKEDQQKHNDFVKRMVERGYTEKQVRLLSEWYMRVRKSQEGHHHHHH, GSENIYTTLKFESMMQQRVIQIRSIPEEEYHELVSVQFKTDGGKYEKGEKQDLELSEKKTENGKDTESWGWNENQDSDEHDGWDEELDIDVDNVPIQVSVFVQSAAKVFTEFEQGCDTIGRSKVESIYLYKFNLLQTAFFAMVSEKVNDWTQLYKDVRYLYTENPKLLQLMELNSRRLDLNLNLIKKTIYKLVNDQLQELKDNERTPDWDITISSLLPYLKKTALPTLYKLEDNTILVALIRYIVHDLVIDNILHWRVISEKSSENLSEFIMLLLSGLEIPRLNLIETYRHSREKLGILSKILTAHLKDILEMFYEGEFFLFETDEIVQWIILLFADTPTRRDCIDEIRRVREEATD, DEETKAFEALLSNIVKPVASDIQARTVVLTWSPPSSLINGETDESSVPELYGYEVLISSTGKDGKYKSVYVGEETNITLNDLKPAMDYHAKVQAEYNSIKGTPSEAEIFTTLSCEPDIPNPPRI

Soluble on expression in E. coli, not soluble:
MDPLDDLLTQLEGVEEEELKPVNRAPRLLNMEEACENQGSSEKPSDSSSKNRYEDDDSDDEELYVKKRELTEQGALLKRHLEKNSSTSGPKATDAWKTNKKSVLTGLTKPSTDTVTVGIVRFDKFQISIRNPKISATSFGAFTAGMKLEKLSNLKPTSNFKEAWCTIGVIVEKGFKKKSANGNDFLIWKLHDLKDCQTQPVKLLMFGDAIKDHWEIKLGSVIALISAQIADDSTASGAKKTVSATLKVAKSNNIVEIGQSAHFGTCKGIRQQDGQRCSNFVNSSLSEFCVFHVMSAARKLSAKRGVFNAVTCGPNVGGLSFNKKPGTPRPPISSRPGISGSGLATSSGSPMLRDTMRPADSFTLTTPTSGLKKITKEEEKSSLNDLLSQRKNTFAARQMLKLKEKKDEKLAESVEEMIEFLGTTGGEEKPSVHSSFGEFLAADTRREKAATVDLRASSATSGTSASSPGGSKLWTMSLANKKAAPLGHKDAQEHAARLRAIAILKAKRKEAEMEKLTGGGGGVKRKASGTPTAPEPEAKKPRSQKMDEIRAMLARKSTHHKEAEKAEHDMLQRHLTGMEEREKVETFTTTCVEVKNVKVVTCNQCKYTSQFASSECIKKEHKLIKHTADKRFFKCTGCKKRTVCFEMMPVKHCAHCNENKWERVAMKDERKVVLDTENLLLRGEERPFVGS, MGKEITENIIDVEFKCNHFKMNGYIGNNNIYRSNKNLQHIYINKRFVKSKIIIDAITESYKSIIPIGKHAVCFLNIEVDPSCIDVNIHPNKLEIKFEKEQEVYIELRDFLKVKLIHSNLIGLEHHHHHH, MNTMVKLPDSRWPGWRRRLYWWMHEAVEAEEVISLDLETTSLDPRRADILSIGAVLVRRGKLVMGERLELYVEPPPSLDAESIRIHKLRRADLEGQLQLEQALRQVLAFIGDRPLLGYYLSFDVAVLNRHLRQLLDRQLHNPSIEISSLYHRKVSRHFPDAHIDLRFDTLARALDVPVSGRHTALGDAQAVALMFMRLLKGPAPKVIH, GNWAEITDEISKIYQDNQYKIRQINDVDAVSDKRREALQALFEHTGRNVIVYYSAWLENGRRFSGQSTDFSVNDTDKNSFMTALHKLDQSKGLDLILHTPGGDVAATESLVDYIHALFGQDFRVIVPQLAMSAGTMIALSSKEIVMGKHSSLGPIDPQFNGLPAHGLLEEFEQAKKEVSENPQTAHIWQVILNKYNPTMLGEAKKAIQWSNSMVKQWLEKGMFLDEPDKEEKATRAIKELADHSVTLAHNRHISVSKALELGLNIKELESDPKLQDLVLTLHHLSVIAAQRGPLIKFVVNHDNRGTF, MAHHHHHHMDPNAFLSSFDAIVTLSNTEGPRHNVLEPKFTAREQMQALRESVRNAYKESPSQTAMSQICRCYVFIGFNMLETDEETEGVSEICKAYTLTLFGSKKELLDDVVDIAAHPLEEILRNEVPFVTAEKEYAFVTEFMRVHNALGFYFSNRDVELRINDAKQVLIVAEKAYRAWNDWFHQSFPGHCLMKDIPVLENGTLDRASISPDALPIYIVRFEMDTAFTSTLFFLAQVYTACKMTALASRYCHHTLYHQLLNKMEFSKKDWATNALHLSAFYSSCFDYGKALHCLRAGEYIMPEENANEETLGIVAWAFGKFYLHRLHYYSEVRRNCAPRGHFPDEFEGWWVDFPLDIPPPQPLPAIETFEDARKCFKEANVWFNKALNYYVYDGCCTEHIDIKKDIAQLYAALIPFEENRDRIIAMHQRRIALIELFPSDLNFNAYPTLVRQLLFDLGGMHEEMLEVYIQQKNSPMEGEKPLSDKKINAFADKVQGFYRRFCDTWKEPQTNKIPETIDIDSRLPFFRSLMRLAHLQMKRFFKDPKEEYDNISASIVMFEKAIAFASSNPMNEEADAEVQLAREMATLLPVRQKDLWRVYHNAV, MGSDKIHHHHHHAVSAEEAKELGHKLTEFGAEKAGNADGSIPPYTGGVKDLAIPADFKPGSGHYPDPFKDEKPLVSITKANEAQYAEFLMPGTKALLERLPGFRIDVYKTHRTMAYPDWVLKNTVGCARTAKLVGSVTGDGVEGAFACIPFPIPKNGYEVMWNQNLRYQGVRTDFRFRTILIDESGHKTLMGDNETQFIYQYYDRNGSKLPDNFFRTGFTRFYGPPSEVGMMTLAKYSINDGTDDDTTWIYMPGQRRVRVAPEYKYDTPMAAIGGTLLFDEVGGFQGRMDRFDFKLVGKKEMFVPYNNYRAYNSSDLVGDKYANPDDVRWEKHRVWVVEATLKPGERNIYSHRTYYIDEDTWLIVGYEAYDQSNALYRAGYTLDIVPYDKPRVGQPNAIMYDLTKGNYSVTADQGTPSQHMIPFDDLPNMGNYNTQALLNAGVR
